Reference: patent US20210147504A1

Legend:
[1] = target: rat CNP receptor (NPR-B) (rat) (UniProt P16067); assay: cell-based or functional assay
[2] = target: rat ANP receptor (NPR-A) (rat) (UniProt P18910); assay: cell-based or functional assay
Sequence of rat ANP receptor (NPR-A) (rat) (P18910 29-1057): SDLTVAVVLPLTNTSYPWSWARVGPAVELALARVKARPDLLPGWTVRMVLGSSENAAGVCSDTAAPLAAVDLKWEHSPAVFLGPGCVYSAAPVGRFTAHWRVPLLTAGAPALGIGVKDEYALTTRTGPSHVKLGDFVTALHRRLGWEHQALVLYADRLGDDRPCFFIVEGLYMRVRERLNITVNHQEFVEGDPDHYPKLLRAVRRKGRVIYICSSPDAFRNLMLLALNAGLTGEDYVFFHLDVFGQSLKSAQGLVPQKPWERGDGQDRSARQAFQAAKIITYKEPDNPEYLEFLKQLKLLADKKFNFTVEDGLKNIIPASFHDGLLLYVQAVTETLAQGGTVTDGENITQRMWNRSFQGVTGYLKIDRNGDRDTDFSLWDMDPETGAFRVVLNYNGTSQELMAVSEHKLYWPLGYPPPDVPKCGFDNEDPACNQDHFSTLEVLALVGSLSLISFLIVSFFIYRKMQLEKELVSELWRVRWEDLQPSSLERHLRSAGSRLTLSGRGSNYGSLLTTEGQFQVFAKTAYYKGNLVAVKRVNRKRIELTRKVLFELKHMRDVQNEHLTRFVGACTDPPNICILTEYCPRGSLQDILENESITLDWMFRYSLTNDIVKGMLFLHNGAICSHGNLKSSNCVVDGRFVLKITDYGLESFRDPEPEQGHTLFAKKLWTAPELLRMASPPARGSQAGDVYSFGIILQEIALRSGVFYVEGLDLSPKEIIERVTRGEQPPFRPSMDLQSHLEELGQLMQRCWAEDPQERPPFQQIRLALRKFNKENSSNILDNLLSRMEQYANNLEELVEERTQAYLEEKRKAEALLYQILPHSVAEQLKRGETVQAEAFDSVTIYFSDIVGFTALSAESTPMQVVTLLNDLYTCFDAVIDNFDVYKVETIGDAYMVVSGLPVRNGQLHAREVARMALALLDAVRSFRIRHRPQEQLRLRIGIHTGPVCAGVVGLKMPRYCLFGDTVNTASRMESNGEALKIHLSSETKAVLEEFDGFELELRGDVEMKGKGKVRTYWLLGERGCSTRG

Sequence of rat CNP receptor (NPR-B) (rat) (P16067 17-1047): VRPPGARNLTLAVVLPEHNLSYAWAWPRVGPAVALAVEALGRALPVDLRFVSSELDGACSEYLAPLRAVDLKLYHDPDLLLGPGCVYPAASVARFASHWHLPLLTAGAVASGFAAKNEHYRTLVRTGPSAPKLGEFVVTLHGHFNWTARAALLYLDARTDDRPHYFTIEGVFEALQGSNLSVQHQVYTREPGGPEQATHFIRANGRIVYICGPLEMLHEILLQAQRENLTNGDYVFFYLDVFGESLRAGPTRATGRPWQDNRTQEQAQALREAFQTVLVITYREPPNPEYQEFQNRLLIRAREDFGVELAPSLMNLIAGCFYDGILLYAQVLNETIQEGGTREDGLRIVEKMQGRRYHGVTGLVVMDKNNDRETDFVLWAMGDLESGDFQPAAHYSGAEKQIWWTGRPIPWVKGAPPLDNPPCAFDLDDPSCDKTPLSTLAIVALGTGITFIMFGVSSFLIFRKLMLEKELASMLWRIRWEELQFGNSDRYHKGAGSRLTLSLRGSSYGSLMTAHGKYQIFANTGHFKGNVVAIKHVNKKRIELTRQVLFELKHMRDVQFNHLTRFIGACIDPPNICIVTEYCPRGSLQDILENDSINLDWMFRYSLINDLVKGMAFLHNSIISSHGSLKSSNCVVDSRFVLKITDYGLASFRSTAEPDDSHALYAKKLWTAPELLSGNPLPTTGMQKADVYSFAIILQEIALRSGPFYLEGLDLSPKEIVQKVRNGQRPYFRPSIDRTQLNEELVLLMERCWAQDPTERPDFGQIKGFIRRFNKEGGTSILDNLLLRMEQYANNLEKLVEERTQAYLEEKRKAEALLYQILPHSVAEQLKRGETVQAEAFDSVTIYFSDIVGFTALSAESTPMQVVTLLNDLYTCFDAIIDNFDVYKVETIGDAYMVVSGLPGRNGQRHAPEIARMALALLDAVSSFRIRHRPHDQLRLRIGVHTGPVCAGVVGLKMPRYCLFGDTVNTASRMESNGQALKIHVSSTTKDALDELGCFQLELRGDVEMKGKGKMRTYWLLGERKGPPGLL

Binder | EC50, luminescence signal of rat NPR-B cGMP reporter cell line [1] [nM] | EC50, fluorescence signal of rat NPR-A cGMP reporter CHO cell line (GCaMP6/CNGA2) [2] [nM]
GLSKGCFGLKLDRIGSMSGLGC (peptide, from a related filing) [CNP (Bachem, H-1296)] | 0.024 | 
SLRRSSCFGGRIDRIGAQSGLGCNSFRY (peptide, from a related filing) [ANP (Bachem, H-2100)] |  | 0.22
